The results in this text go back to patent publication US20250381223A1 (UTC THERAPEUTICS SHANGHAI, published 2025).

Experiment [1] addresses T1, CD123-Fc recombinant protein (human, UniProt P26951 19-305).
T1 construct: construct not described; not shown: Fc part
T1 sequence (looked up): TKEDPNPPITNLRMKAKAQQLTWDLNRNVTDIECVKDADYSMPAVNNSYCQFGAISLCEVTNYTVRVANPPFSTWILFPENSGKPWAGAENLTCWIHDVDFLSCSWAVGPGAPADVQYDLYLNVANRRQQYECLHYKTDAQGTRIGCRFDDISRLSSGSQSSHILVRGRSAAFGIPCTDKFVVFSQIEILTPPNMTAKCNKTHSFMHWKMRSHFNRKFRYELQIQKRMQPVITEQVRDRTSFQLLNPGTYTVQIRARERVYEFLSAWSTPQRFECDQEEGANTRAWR
In words: flow cytometry of T cells electroporated with CAR mRNA, stained with CD123-Fc + PE-anti-hIgG-Fc; Mock 1.68. The method, then:
The CD123 CAR mRNAs obtained in Example 35 above were each introduced into T cells by electroporation according to the following procedures: T cells were collected, washed with the Opti-MEM medium, and resuspended at 1×10e⁷/mL with the Opti-MEM medium; 10 μg of RNA and 100 μL of T cells were aliquoted, mixed well, and electroporated under the following parameters (BTX machine): 500 V, 0.7 ms; the cells were then transferred to a pre-warmed medium and cultured at 37° C. The binding of CD123 CART cells to the CD123-Fc recombinant protein was detected by FACS staining. […] Empty vector (Mock) was a control T cell without CAR molecule. A549 tumor cells were electroporated with different amounts of CD123 mRNA. The electroporation procedure was the same as described above, and only the parameters were changed, with the parameters 300 V, 0.5 ms used. CD123 expression in A549 tumor cells was detected by FACS staining of isotype or anti-CD123 antibodies and A549 cells electroporated with different amounts of CD123 mRNA. […] The cytotoxicity of CD123 CART cells against tumor cells was detected in an in vitro cytotoxicity assay. Tumor cells expressing EGFP or EGFP-A549 cells electroporated with different amounts of tumor antigen were seeded at 3000 cells/100 μL/well into a flat-bottom 96-well plate; CART cells were diluted to a proper concentration and seeded to the 100 μL/well tumor cells according to different E/T ratios (e.g., 10:1, 3:1, or 1:1), and the co-culture plate was placed into the IncuCyte S3 machine and scanning parameters were set. After scanning for 3 days, the total green object integrated intensity (GCU×μm²/well) was analyzed to calculate the killing efficiency.
(In general: Flow cytometry measures light scatter and fluorescence of single cells or particles in a stream.)

Experiment [2] concerns the target T2, CD28 (detection antigen of the BLI assay) (human, UniProt P10747 19-152, limits assumed).
T2 construct: also called the antigen
The experiment is described as follows: BLI (GATOR); antibody loaded at 30 nM, antigen 300-37.5 nM. The text has this:
The affinity kinetics of the humanized antibodies were detected using biolayer interferometry (BLI). The experimental procedures were as follows: [0533] 1. GATOR instrument was run, and the Kinetics experimental mode was selected. [0534] 2. The analysis program was run according to Table 5

B1: anti-CD123 scFv-C3 (scFv)
scFv: AIQMTQSPSSLSASVGDRVTITCRASQGIGTYLAWFQQKPGKAPKSLIYAASNLQSGVPSKFSGSGSGTDFTLTISNLQPEDFATYYCQQYKGYPLTFGGGTKLEIKGGGGSGGGGSGGGGSQVQLVQSGAEVKKPGSSVKVSCKASGGTFSSYAISWVRQAPGQGLEWMGGIIPIFGTANYAQKFQGRVTITADESTSTAYMELSSLRSEDTAVYYCARDSGWFGPRYYFDYWGQGTLVTVSS
notes: On mRNA-electroporated T cells as CAR
On to B1, for which, in experiment [1], the “percent of cells in the CD123-Fc positive gate” value (“percent of cells” below) is 84.7%.

B2: anti-CD123 scFv-C14 (scFv)
scFv: DIRMTQSPSSLSASVGDRVTITCQASQDITNYLNWYHQKPGKAPKLLIYDASNLETGVPSRFSGGGSGTDFTFTISSLQSEDIGTYYCQQYDDLPLTFGGGTKVEIKGGGGSGGGGSGGGGSQVQLQESGPGLVKPSETLSLTCTVSGGSISSSSHYWGWIRQPPGKGLEWIGSIYYSGSTYYNPSLKSRVTISVDTSKNQFSLKLSSVTAADTAVYYCARRVWVWPTYGMDVWGQGTTVTVSS
notes: as for B1
In the case of B2, the “percent of cells” value in experiment [1] is 85.4%.

B3: anti-CD123 scFv-C6 (scFv)
scFv: SYELTQPPSVSVSPGQTARIPCSGADLGDQYVSWYQHQPGQSPLLVIYEDDKRPSGIPERFSGSNSGNTATLTISGTQAMDEADYYCQAWDGNAAIFGGGTKLTVLGGGGSGGGGSGGGGSQVQLVQSGGGSVQPGGSLRLSCAASGFTFTRYSMNWVRQAPGKGLEWVSYISSSSSTIYYADSVKGRFTISRDNAKNSLYLQMNSLRDEDTAVYYCARDGYGGNSDYYGMDVWGQGTTVTVSS
notes: as for B1
As for B3, the “percent of cells” value in experiment [1] is 93.3%.

B4: anti-CD123 scFv-C5 (scFv)
scFv: NFMLTQPHSVSESPGKTVTLSCTRSSGSIAGSYVQWYQQRPGSSPTTVIFQDNQRPSGVPDRFSGSIDKSSNSASLTISGLKTEDEADYYCQSYDSNNQVFGGGTKLTVLGGGGSGGGGSGGGGSEVHLVESGGGVVRPGGSLRLSCAASGFTFGDYGMSWVRQAPGKGLEWVSGINWNGGRTGYADSVKGRFTISRDNAKNSLYLQMNSLRAEDTALYYCARARGSGSYFGYMDVWGKGTTVTVSS
notes: On mRNA-electroporated T cells as CAR; also called anti-CD123-C5
With B4, in experiment [1], the “percent of cells” value came out at 79.3%.

B5: huVH5huVL3 (antibody, human IgG1, kappa, V domains shown)
VH: QVQLQESGPGLVKPSETLSLTCTVSGFSISDYGVHWIRQPPGKGLEWIGVIWAGGGTNYNPSLKSRVTISVDTSKNQVSLKLSSVTAADTAVYYCARDKGYSYYYSMDYWGQGTTVTVSS
VL: DIQLTQSPSSLSASVGDRVTITCRASESVEYYVTSLMQWYQQKPGKAPKLLIFAASNVESGVPSRFSGSGSGTDFTLTISSLQPEDFATYYCQQSRKVPYTFGGGTKLEIKR
The term Kd denotes the constant that tells how readily two partners part at equilibrium. A higher Kd goes with lower affinity. A word on the koff: it is a measure of how fast the partners let go of each other. High values mean fast dissociation, low ones slow dissociation. A word on the kon: it is a measure of how fast the partners come together. The low end stands for slower complex formation, the high end for faster complex formation. In experiment [2], B5 gave a Kd of 11.5 nM, an off-rate (koff) of 0.00101 s⁻¹ and a kon of 87800 M⁻¹ s⁻¹.

B6: anti-CD123 scFv-C13 (scFv)
scFv: DVVMTQTPLSLPVTLGQPASISCRSSQGLVFSDGVTYLNWFQQRPGQSPRRLIYKVSNRDSGVPDRFSGSGSGTDFTLKISRVEAEDVGIYYCMQGTHWPHTFGQGTKLEIKGGGGSGGGGSGGGGSEVQLVESGGGLVKPGGSLRLSCAASGFTFSSYSMNWVRQAPGKGLEWVAFISHDASKKFYADSVKGRFTLSRDNSKNTLYLEMNSLGAEDTALYYCGRDRNWGFSDFWGQGTLVTVSS
notes: as for B1
B6: in experiment [1], the “percent of cells” value was 85.7%.

B7: anti-CD123 scFv-C4 (scFv)
scFv: QSALTQPPSASGTPGQRVTISCSGSSSNIGSNYVNWYQQLPGTAPKLLIYRNNQRPSGVPDRFSGSKSGTSASLAISGLRSEDEADYYCAAWDDSLSGHGVFGTGTELTVLGGGGSGGGGSGGGGSQVQLVQSGPEVKKPGASVKVSCKASGYDFIRYYMNWVRQAPGQGPEWMGAIDPSDGDTTYGQKFQGRVTLTRDTFTSTVYMELSSLRSEDTAVYYCARDWELTNSYGLDVWGQGTTVTVSS
notes: as for B1
Take B7: the “percent of cells” value in experiment [1] was determined as 93.8%.

B8: anti-CD123 scFv-C11 (scFv)
scFv: QSVVTQPPSASGTPGQRVTISCSGSSSNIGSNYVYWYQQLPGTAPKLLIYRNNQRPSGVPDRFSGSKSGTSASLAISGLRSEDEADYYCAAWDDSLSGYVFGTGTKLTVLGGGGSGGGGSGGGGSEVQLVESGGGLVQPGRSLRLSCTASGFTFGDYAMSWVRQAPGKGLEWVGFIRSKAYGGTTEYAASVKGRFTISRDDSKSIAYLQMNSLKTEDTAVYYCTRDIGYYGSGSYSPFDYWGQGTLVTVSS
notes: On mRNA-electroporated T cells as CAR; also called anti-CD123-C11
For B8, the “percent of cells” value in experiment [1] came out at 38%.

B9: anti-CD123 scFv-C10 (scFv)
scFv: SYELTQPPSVSVAPGKTARITCGGNNIGSKSVHWYQQKPGQAPVLVVYDDSDRPSGIPERFSGSNSGNTATLTISRVEAGDEADYYCQVWDSSSDHWVFGGGTKLTVLGGGGSGGGGSGGGGSQVQLVQSGAEVKKPGSSVKVSCKASGGTFSSYAISWVRQAPGQGLEWMGGIIPIFGTANYAQKFQGRVTITADESTSTAYMELSSLRSEDTAVYYCAREKWGYYGDYYYGMDVWGQGTTVTVSS
notes: as for B1
As to B9, the “percent of cells” value in experiment [1] amounted to 32.3%.

B10: anti-CD123 scFv-C1 (scFv)
scFv: QSALTQPASVSGSPGQSITISCTGTSSDIGAYNYVSWYQQHPGKAPKLIIYDVSHRPSGVSNRFSGSKSGNTASLTISGLQSEDEADYYCSSDTNNNTLVFGVGTKLTVLGGGGSGGGGSGGGGSEVHLVESGGGVVQPGRSLRLSCAASGFTFSSYGMHWVRQAPGKGLEWVAVIWYDGSNKYYADSVKGRFTISRDNSKNTLYLQMNSLRAEDTAVYYCARDRDGFFLPMYYFDYWGQGTLVTVSS
notes: On mRNA-electroporated T cells as CAR (hinge to CD3-zeta)
With B10, in experiment [1], the “percent of cells” value stood at 53.6%.

B11: anti-CD123 scFv-C2 (scFv)
scFv: QSVVTQPPSVSAAPGQKVTISCSGSSSNIGNNYVSWYQQFPGTAPKLLIYDNNKRPSGIPDRFSGSKSGTSGTLGITGLQTGDEADYYCVTWDTSLSAGVFGGGTKLTVLGGGGSGGGGSGGGGSQITLKESGGGLVKPGGSLRLSCAASGFTFSNAWMSWVRQAPGKGLEWVGRIKSKTDGGTTDYAAPVKGRFTISRDDSKNTLYLQMNSLKTEDTAVYYCTTDPHGYYYGMDVWGQGTTVTVSS
notes: as for B1
For B11, in experiment [1], the “percent of cells” value is 81.7%.

B12: anti-CD123 scFv-C17 (scFv)
scFv: QSALTQPASVSGSLGQSITISCTGTSSDVGTYDYVSWYQQHPGKAPKLMIYDVTYRPSGVSHRFSGSKSGNTASLTISGLQADDEADYYCQQYNNWPPRYTFGQGTKVEIKGGGGSGGGGSGGGGSQVQLVQSGAEVEKPGASVKLSCTASGYNFNSYYMHWVRLTPGQGLEWMGLINPTNGRTTYAQKFQGRVTMTGDTSTRTVYLALSSLRSEDSALYYCARGSPPHIFDPDFDYWGQGTLVTVSS
notes: as for B1
As to B12, the “percent of cells” value in experiment [1] amounted to 97.5%.

B13: anti-CD123 scFv-C16 (scFv)
scFv: QSVVTQPPSASGTPGQRVTISCSGSSSNIEGNTVSWYQQFPGAAPKLLIYSNSYRASGVPDRFSGSKSGTSASLAISELQSEDEADYYCSAWDDSLNGPVFGGGTELTVLGGGGSGGGGSGGGGSQVQLQESGGGLVQPGGSLRLSCAASGFTFSSYSMNWVRQAPGKGLEWVSYISSSSSTIYYADSVKGRFTISRDNAKNSLYLQMNSLRAEDTAVYYCARDIYGDWDYYYYGMDVWGQGTTVTVSS
notes: as for B1
B13: the “percent of cells” value in experiment [1] was 94.2%.

B14: anti-CD123 scFv-C15 (scFv)
scFv: DIQLTQSPSTLSASVGDRVTISCRASQSISSWLAWYQHKPGKAPKLLIYKTSALEDGVPSRFSGSGSGTEFTLTISSLQPDDFATYFCLHYGSYTFGQGTKVDIKGGGGSGGGGSGGGGSEVQLVESGGGLVNPGGSLRLSCEASGFTFSDYYISWIRQAPGKGLEWISYISGSSTYTDFADSVKGRFTISRDNAKNTVFLQMNSLRAEDTAVYYCARDRRGRFDPWGQGTLVTVSS
notes: as for B1
Turning to B14, the “percent of cells” value in experiment [1] is 97.3%.

B15: anti-CD123 scFv-C18 (scFv)
scFv: QSALTQPASVSGSPGQSITISCTGTSSDVGGYNYVSWYQQHPGKAPKLMIYDVSNRPSGVSNRFSGSKSGNTASLTISGLQAEDEADYYCSSYTSSSTLFVFGTGTELTVLGGGGSGGGGSGGGGSQVQLQESGPGLVKPSQTLSLTCTVSGGSISSGDYYWSWIRQSPGKGLEWIGYIHSTGTTYYNPSLKSRLTISLDTSKNQFSLKLNSVTAADTAVYYCARGGVGTIFNYWGQGTLVTVSS
notes: as for B1
As for B15, the “percent of cells” value in experiment [1] was found to be 87.8%.

B16: anti-CD123 scFv-C9 (scFv)
scFv: QSVLTQPPSASGTPGQRVTISCSGSNSNIENNYVYWYQHLPGTAPKRLIYQNNQRPSGVPDRFSGSKSGTSASLAISGLRSEDEADYYCSAWDDSLSAWVFGGGTELTVLGGGGSGGGGSGGGGSEVHLVESGGGLVQPGRSLRLSCTASGFTFGDYAMNWVRQAPGKGLEWVGFIRSKASGGTTDYAASVKGRFTISRDDSKSIAYLQMNSLKTEDTAVYYCTRALRGYSYGLFDYWGQGTLVTVSS
notes: as for B1
Regarding B16, in experiment [1], the “percent of cells” value was found to be 94%.
